Reference: patent publication US9766239
Where no end group is shown, it is not given here. scaffold 1571 = not defined here

Key:
[1] = target: Norovirus surrogate virus-like particle, type GII.4 Minerva strain (human Norovirus GII.4 Minerva strain); experiment: SPR, unpurified peptide against nVLP GII.4
[2] = target: Norovirus surrogate virus-like particle, type GII.4 Minerva strain (human Norovirus GII.4 Minerva strain); experiment: direct ELISA on purified GII.4 nVLP
[3] = target: Norovirus surrogate virus-like particle, type GII.4 Minerva strain (human Norovirus GII.4 Minerva strain); experiment: capture of VLP from a dilute solution by the synbody
[4] = target: GII.4 Sydney# Norovirus VLP (Norovirus GII.4 Sydney strain); experiment: as above

DWARKNNKRKMNFNLGWGSC [Mut Peptide-60] gave a % Stability [1] of 44%, an Avg Binding (Spot 1/2) [1] of 134 and a koff [1] of 0.00487 s⁻¹.

VWARKNNKRKKDFNAGWGSC [Mut Peptide-53] gave a % Stability [1] of 51%, an Avg Binding (Spot 1/2) [1] of 189 and a koff [1] of 0.00408 s⁻¹.

SWARSNNKRSKAFNLGWGSC [Mut Peptide-78] was tested, and the % Stability [1] was 46%, the Avg Binding (Spot 1/2) [1] was 169 and the koff [1] was 0.00431 s⁻¹.

Work on RWHRVKLRSHTELNRYIGSC [Mut Peptide-92] yielded a % Stability [1] of 57%, an Avg Binding (Spot 1/2) [1] of 230 and a koff [1] of 0.00355 s⁻¹.

With RWVRVKLRSHTELNRYIGSC [Mut Peptide-93] the % Stability [1] was 60%, the Avg Binding (Spot 1/2) [1] was 274 and the koff [1] was 0.00332 s⁻¹.

For RWVRVKLRSHTKLNRYIGSC [Mut Peptide-94], the % Stability [1] was 63%, the Avg Binding (Spot 1/2) [1] was 358 and the koff [1] was 0.00294 s⁻¹.

DWARKNNKRKMNFNLGWGSC(scaffold 1571) (designed binder, reading uncertain; also: two peptides coupled by Cys to scaffold 1571 (dimer)) [nVLP60-60-1571] gave a Kd [2] of 2 nM.

Work on AWARSNNSRSKAFNLGWGSC(scaffold 1571) (designed binder, reading uncertain; also: two peptides coupled by Cys to scaffold 1571 (dimer)) [nVLP81-81-1571] yielded a Kd [2] of 3 nM.

For RWVRVKLRSHTELNRYIGSC(scaffold 1571) (designed binder, reading uncertain; also: two peptides coupled by Cys to scaffold 1571 (dimer)) [nVLP93-93-1571], the Enrichment Factor from 1 ng/µL solution [3] was 10, the Enrichment Factor from 1 ng/µL solution [4] was 3 and the Kd [2] was 4 nM.

For SWARSNNKRSKAFNLGWGSC(scaffold 1571) (designed binder, reading uncertain; also: two peptides coupled by Cys to scaffold 1571 (dimer)) [nVLP78-78-1571], the Kd [2] was 5 nM.

RWHRVKLRSHTELNRYIGSC(scaffold 1571) (designed binder, reading uncertain; also: two peptides coupled by Cys to scaffold 1571 (dimer)) [nVLP92-92-1571] gave an Enrichment Factor from 1 ng/µL solution [3] of 3 and a Kd [2] of 3 nM.

For RWVRVKLRSHTKLNRYIGSC(scaffold 1571) (designed binder, reading uncertain; also: two peptides coupled by Cys to scaffold 1571 (dimer)) [nVLP94-94-1571], the Enrichment Factor from 1 ng/µL solution [3] was 7, the Enrichment Factor from 1 ng/µL solution [4] was 3 and the Kd [2] was 1 nM.

VWARKNNKRKKDFNAGWGSC(scaffold 1571) (designed binder, reading uncertain; also: two peptides coupled by Cys to scaffold 1571 (dimer)) [nVLP53-53-1571] was tested, and the Kd [2] was 1 nM.

Binder VWARKNNSRSKDFNAGWGSC(scaffold 1571) (designed binder, reading uncertain; also: two peptides coupled by Cys to scaffold 1571 (dimer)) [nVLP55-55-1571] has a Kd [2] of 9 nM.

AWARSNNSRSKAFNLGWGSC [Mut Peptide-81] was tested, and the % Stability [1] was 45%, the Avg Binding (Spot 1/2) [1] was 128 and the koff [1] was 0.00455 s⁻¹.
